The text below walks through data of patent publication US20220389118A1 (Chugai, published 2022).

Assay [1] addresses T1, human FcγRIIa type R extracellular domain with C-terminal His tag (human, UniProt P12318 34-217).
T1 construct: extracellular domain; also called FcγRIIaR; FcγRIIa R
T1 sequence (looked up): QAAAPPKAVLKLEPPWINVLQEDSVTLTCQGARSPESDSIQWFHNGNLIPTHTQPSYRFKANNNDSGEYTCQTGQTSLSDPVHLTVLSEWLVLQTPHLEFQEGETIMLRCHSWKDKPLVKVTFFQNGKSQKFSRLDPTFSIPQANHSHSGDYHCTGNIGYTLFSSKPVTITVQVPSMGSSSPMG
In words: SPR.

Assay [2] deals with T2, human FcγRIIb extracellular domain with C-terminal His tag (human, UniProt P31994 43-217).
T2 construct: extracellular domain; for crystals expressed with kifunensine and trimmed with Endo F1; also called FcγRIIb extracellular region
T2 sequence (looked up): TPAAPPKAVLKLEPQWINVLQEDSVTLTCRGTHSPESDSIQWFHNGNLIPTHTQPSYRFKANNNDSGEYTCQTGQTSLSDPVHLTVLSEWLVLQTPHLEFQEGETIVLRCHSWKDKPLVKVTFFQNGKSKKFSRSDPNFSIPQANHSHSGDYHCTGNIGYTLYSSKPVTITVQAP
Nature of the assay: SPR. (SPR reads the build-up and loss of mass on a sensor chip optically.)

Assay [3] addresses T3, human IgE (human).
T3 construct: Recombinant human IgE used as the antigen; its variable region is from an anti-human glypican 3 antibody; held on the chip by a biotinylated GPC3 peptide; also called hIgE
In words: SPR (Biacore T200), human IgE held on SA chip by biotinylated GPC3 peptide, antibody as analyte, 37 C; pH5.8, 3 µM Ca; pH 5.8. On the procedure: (§1) Measurements were carried out using the following three types of running buffers:
(§2) An appropriate concentration of human IgE was injected and captured by the biotinylated GPC3 peptide to immobilize human IgE on the chip. […] Then, 10 mmol/L glycine-HCl (pH 1.5) was injected to regenerate the sensor chip. All of the assay for the interaction was performed at 37° C. Using Biacore T200 Evaluation Software (GE Healthcare), the assay results were analyzed by curve fitting to determine the binding rate constant ka (1/Ms) and dissociation rate constant kd (1/s). Dissociation constant KD (M) was calculated from the above constants.

Assay [4] addresses T3, human IgE. Nature of the assay: SPR (Biacore T200), human IgE held on SA chip by biotinylated GPC3 peptide, antibody as analyte, 37 C; pH5.8, 1.2 mM Ca; pH 5.8. On the procedure:
as §1, §2

Assay [5] has as its target T3, human IgE. In words: SPR (Biacore T200), human IgE held on SA chip by biotinylated GPC3 peptide, antibody as analyte, 37 C; pH7.4, 1.2 mM Ca; pH 7.4. The method, then:
as §1, §2

Assay [6] has as its target T3, human IgE. In words: SPR (Biacore T200), human IgE held on SA chip by biotinylated GPC3 peptide, antibody as analyte, 37 C; pH7.4, 1.2 mM Ca; pH7.4, 1.2 mM Ca; 37 C; pH 7.4. The method, then:
as §1, §2

Assay [7] concerns the target T4, human FcγRIIa type R extracellular domain with C-terminal His tag (human, UniProt P12318 34-217).
T4 construct: extracellular domain; also called FcγRIIaR; FcgRIIaR
T4 sequence (looked up): T1 sequence (looked up)
In words: SPR (Biacore), binding amount.

Assay [8] addresses T5, human FcγRIa extracellular domain with C-terminal His tag (human, UniProt P12314 16-292).
T5 construct: extracellular domain; also called FcgRIa
In words: SPR (Biacore), binding amount.
T5 sequence (P12314 16-292): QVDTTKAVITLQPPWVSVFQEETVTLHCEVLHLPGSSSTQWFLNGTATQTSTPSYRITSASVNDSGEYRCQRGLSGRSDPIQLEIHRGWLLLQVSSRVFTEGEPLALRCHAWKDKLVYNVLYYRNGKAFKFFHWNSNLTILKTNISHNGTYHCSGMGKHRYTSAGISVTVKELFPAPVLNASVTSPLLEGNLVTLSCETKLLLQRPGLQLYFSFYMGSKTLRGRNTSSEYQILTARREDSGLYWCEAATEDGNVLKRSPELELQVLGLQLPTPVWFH

Assay [9] addresses T6, human FcγRIIb extracellular domain with C-terminal His tag (human, UniProt P31994 43-217).
T6 construct: extracellular domain; also called FcgRIIb
T6 sequence (looked up): T2 sequence (looked up)
Nature of the assay: SPR (Biacore), binding amount.

The target of assay [10] is T7, human FcγRIIIa type V extracellular domain with C-terminal His tag (human, UniProt P08637 17-208).
T7 construct: extracellular domain; also called FcγRIIIaV; FcgRIIIaV
Nature of the assay: SPR (Biacore), binding amount.
T7 sequence (P08637 17-208 F176V): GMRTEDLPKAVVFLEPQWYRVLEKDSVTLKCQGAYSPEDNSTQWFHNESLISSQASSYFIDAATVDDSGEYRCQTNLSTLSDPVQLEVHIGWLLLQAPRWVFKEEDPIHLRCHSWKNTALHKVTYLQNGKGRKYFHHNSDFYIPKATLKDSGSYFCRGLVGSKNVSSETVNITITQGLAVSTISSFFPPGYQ

The target in assay [11] is T8, human FcγRIIa type H extracellular domain with C-terminal His tag (human, UniProt P12318 34-217).
T8 construct: extracellular domain; also called FcγRIIaH; FcgRIIaH
T8 sequence (looked up): T1 sequence (looked up) with R134H
In words: SPR (Biacore), binding amount.

Assay [12] addresses T1, human FcγRIIa type R extracellular …. Nature of the assay: SPR, amount of binding. The text has this: (§3) These variants were expressed and purified by the method of Reference Example 2. These Fc variants are called PD variants. Interactions of each PD variant with FcγRIIa type R and FcγRIIb were comprehensively evaluated by the method of Reference Example 25.
For assay [13], the target named is T2, human FcγRIIb extracellular domain with …. Nature of the assay: SPR, amount of binding.
Text: as §3

In assay [14] the target is T9, human FcγRIIa type R extracellular domain with C-terminal His tag (human, UniProt P12318 34-217).
T9 construct: extracellular domain; also called FcγRIIaR; FcγRIIa(R)
T9 sequence (looked up): T1 sequence (looked up)
Nature of the assay: SPR (Biacore).

Assay [15] concerns the target T10, human FcγRIa extracellular domain with C-terminal His tag (human, UniProt P12314 16-292).
T10 construct: extracellular domain
In words: SPR (Biacore).
T10 sequence (P12314 16-292): as the sequence (P12314 16-292) above

Assay [16] deals with T11, human FcγRIIb extracellular domain with C-terminal His tag (human, UniProt P31994 43-217).
T11 construct: extracellular domain
T11 sequence (looked up): T2 sequence (looked up)
Nature of the assay: SPR (Biacore).

The target in assay [17] is T12, human FcγRIIIa type V extracellular domain with C-terminal His tag (human, UniProt P08637 17-208).
T12 construct: extracellular domain; also called FcγRIIIaV; FcγRIIIa(V)
In words: SPR (Biacore).
T12 sequence (P08637 17-208 F176V): as the sequence (P08637 17-208 F176V) above

Substitutions are numbered along the chain they refer to. In names and notes the source's numbering stands.

T3 sequence (heavy, as listed by the source, chain 1 of 2, other chains not shown): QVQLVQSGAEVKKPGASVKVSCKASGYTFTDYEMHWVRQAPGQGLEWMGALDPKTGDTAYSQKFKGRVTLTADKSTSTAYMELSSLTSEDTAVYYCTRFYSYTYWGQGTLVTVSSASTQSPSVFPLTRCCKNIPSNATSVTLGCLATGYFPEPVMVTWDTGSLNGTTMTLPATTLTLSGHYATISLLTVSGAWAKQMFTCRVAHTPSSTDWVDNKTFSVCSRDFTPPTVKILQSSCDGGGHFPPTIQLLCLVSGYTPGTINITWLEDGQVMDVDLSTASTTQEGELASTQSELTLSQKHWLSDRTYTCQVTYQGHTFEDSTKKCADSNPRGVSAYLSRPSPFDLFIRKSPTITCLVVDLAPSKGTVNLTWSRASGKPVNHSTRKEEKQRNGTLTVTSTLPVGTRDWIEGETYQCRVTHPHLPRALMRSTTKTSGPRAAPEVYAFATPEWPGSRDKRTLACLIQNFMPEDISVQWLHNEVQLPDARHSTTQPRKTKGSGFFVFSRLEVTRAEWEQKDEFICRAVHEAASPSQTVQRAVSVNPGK

B1: IL6R-BP478/IL6R-L (antibody)
heavy: QVQLQESGPGLVKPSETLSLTCAVSGHSISHDHAWSWVRQPPGEGLEWIGFISYSGITNYNPSLQGRVTISRDNSKNTLYLQMNSLRAEDTAVYYCARSLARTTAMDYWGEGTLVTVSSASTKGPSVFPLAPCSRSTSESTAALGCLVKDYFPEPVTVSWNSGALTSGVHTFPAVLQSSGLYSLSSVVTVPSSSLGTKTYTCNVDHKPSNTKVDKRVESKYGPPCPPCPAPDLLGDDSVFLFPPKPKDTLMISRTPEVTCVVVDVSDEDGEVKFNWYVDGVEVHNAKTKPREEQDNSTYRVVSVLTVLHQDWLNGKEYKCKVSNKALPRPIEKTISKAKGQPREPQVYTLPPSRDELTKNQVSLTCLVKGFYPSDIAVEWESNGQPENNYKTTPPVLDSDGSFFLYSKLTVDKSRWQQGNVFSCSVMHEALHNHYTQESLSLSP
light: not shown
notes: IL6R-BP230 in which Ala118-Thr225 (EU numbering) is replaced by Ala118-Pro222 of G4d; copies: 2 + 2
Take B1: the “fold against IL6R-BP230/IL6R-L” value in assay [1] and in assay [2] was 1.1 fold in each case.

B2: 278-IgG1 (antibody, V domains shown)
VH: QSLEESGGRLVTPGTPLTLTCTASGFSLSSYHMSWVRQAPGKGLEWIGVINSAGNTYYASWAKGRFTVSKTSTTVDLNLTSLTTEDTATYFCARYVFSSGSHDIWGPGTLVTVSS
VL: AYDMTQTPASVEVAVGGTVTIKCQASQSIGSWLAWYQQKPGQPPKELIYGTSTLESGVPSRFIGSGSGTEFTLTISGVECADAATYYCQQGYSEDNIDNAFGGGTEVVVKR
notes: pH-dependent anti-human IgE antibody
On to B2, for which the koff with human IgE [3] is 0.24 s⁻¹; with human IgE [4], 0.23 s⁻¹; with human IgE [5], 0.0036 s⁻¹. The kon with human IgE [3] came to 62000 M⁻¹ s⁻¹; in the assay with human IgE [4] it was 120000 M⁻¹ s⁻¹; in the assay with human IgE [6], 1.5e+06 M⁻¹ s⁻¹.

B3: IL6R-BP198/IL6R-L (antibody, human IgG1, kappa)
heavy: QVQLQESGPGLVKPSETLSLTCAVSGHSISHDHAWSWVRQPPGEGLEWIGFISYSGITNYNPSLQGRVTISRDNSKNTLYLQMNSLRAEDTAVYYCARSLARTTAMDYWGEGTLVTVSSASTKGPSVFPLAPSSKSTSGGTAALGCLVKDYFPEPVTVSWNSGALTSGVHTFPAVLQSSGLYSLSSVVTVPSSSLGTQTYICNVNHKPSNTKVDKKVEPKSCDKTHTCPPCPAPDYLGGDSVFLFPPKPKDTLMISRTPEVTCVVVDVSDEDGEVKFNWYVDGVEVHNAKTKPREEQYNSTYRVVSVLTVLHQDWLNGKEYKCKVSNAALPKPIEKTISKAKGQPREPQVYTLPPSRDELTKNQVSLTCLVKGFYPSDIAVEWESNGQPENNYKTTPPVLDSDGSFFLYSKLTVDKSRWQQGNVFSCSVMHEALHNHYTQESLSLSP
light: not shown
notes: EU numbering; alterations on IL6R-B3; copies: 2 + 2
In the case of B3, the relative binding activity was 449 % of IL6R-BF648/IL6R-L in [7]; 104 % of IL6R-BF648/IL6R-L in assay [8]; 164 % of IL6R-BF648/IL6R-L in assay [9]; 157 % of IL6R-BF648/IL6R-L in [10]; 188 % of IL6R-BF648/IL6R-L in assay [11].

B4: IL6R-F652/IL6R-L (antibody, human IgG1, kappa)
heavy: B3 heavy with D235E, Y236L, M254Y, D270H, G273P, A328K, K332A, N436Y, E441K
light: not shown
notes: IL6R-F11 with P238D (EU numbering); copies: 2 + 2
In the case of B4, the “relative binding activity” value in assay [12] and in [13] was 100 IL6R-F652/IL6R-L = 100 throughout.

B5: IL6R-BP253/IL6R-L (antibody, human IgG1, kappa)
heavy: B3 heavy with D235E, Y236L, D240P, S269E, D270H, G273P, A328K, L330F, K332A
light: not shown
notes: Comparison control with existing alterations; copies: 2 + 2
Regarding B5, the Kd in assay [14] came out at 2.1 nM; in assay [15], 0.067 nM; in assay [16], 11 nM; in assay [17] it was 3600 nM.

In general, koff refers to the first-order rate constant of dissociation. Lower therefore signals a long-lived complex. One may read the kon as the rate constant with which the complex forms. The low end stands for slow association, the high end for fast association. Broadly, the Kd is the constant that tells how readily two partners part at equilibrium.
